One experiment has as its target T1, HLA-A*0201 molecule expressed on human T2 cells (human).
T1 construct: also called HLA-A2
Put plainly: T2 cells (HLA-A*0201), peptide at 1 µM, anti-HLA-A2 flow cytometry. As to the method: (§1) T2 cells (5.104 cells per well) are incubated with decreasing concentrations of peptides from 100 μM to 0.1 μM (4 points: 100 μM, 10 μM, 1 μM, 0.1 μM) in serum-free medium (TexMacs) supplemented with […] of β2 Microglobulin at 37° C. for 16 hours. Cells are then washed two times and marked with the anti-HLA-A2 antibody coupled to PE (clone BB7.2, BD Pharmagen).
(§2) The relative affinity is then determined as follows: […]
Background: A flow cytometer gives signals particle by particle.
LMIPAGIYA [MS4A1-H3]: the “mean relative fluorescence intensity (HIV peptide = 100)” value (“mean relative fluorescence intensity” for short) is 0.9 % of HIV pol 589-597 at 100 µM.

As to YILGGLLMV [MS4A1-B12], the “mean relative fluorescence intensity” value was 1.1 % of HIV pol 589-597 at 100 µM.

Take AMNSLSLYI [MS4A1-B4]: the “mean relative fluorescence intensity” value is 1.9 % of HIV pol 589-597 at 100 µM.

In the case of ILIPAGIYL [MS4A1-B3], the “mean relative fluorescence intensity” value is 17.8 % of HIV pol 589-597 at 100 µM.

For the next experiment, the target named is T1, HLA-A*0201 molecule expressed on human …. Put plainly: T2 cells (HLA-A*0201), peptide at 10 µM, anti-HLA-A2 flow cytometry. The protocol:
as §1, §2
Consider LMIPAGIYA [MS4A1-H3], for which the “mean relative fluorescence intensity” value is 35.7 % of HIV pol 589-597 at 100 µM.

Turning to YILGGLLMV [MS4A1-B12], the “mean relative fluorescence intensity” value was 7.6 % of HIV pol 589-597 at 100 µM.

As for AMNSLSLYI [MS4A1-B4], the “mean relative fluorescence intensity” value was 13.1 % of HIV pol 589-597 at 100 µM.

For the molecule ILIPAGIYL [MS4A1-B3], the “mean relative fluorescence intensity” value was 87.8 % of HIV pol 589-597 at 100 µM.

A further experiment has the same target. Put plainly: T2 cells (HLA-A*0201), peptide titration, anti-HLA-A2 flow cytometry. As to the method:
as §1, §2
Regarding LMIPAGIYA [MS4A1-H3], the “concentration of peptide that induces 20% of HLA-A2 expression” value was 4.83 µM and the “in vitro binding affinity (relative to HIV pol reference peptide)” value is 0.5 ratio to HIV pol 589-597.

Take YILGGLLMV [MS4A1-B12]: the “concentration of peptide that induces 20% of HLA-A2 expression” value is 31.2 µM and the “in vitro binding affinity (relative to HIV pol reference peptide)” value is 3.5 ratio to HIV pol 589-597.

Take AMNSLSLYI [MS4A1-B4]: the “concentration of peptide that induces 20% of HLA-A2 expression” value is 12.3 µM and the “in vitro binding affinity (relative to HIV pol reference peptide)” value is 2.1 ratio to HIV pol 589-597.

As for ILIPAGIYL [MS4A1-B3], the “concentration of peptide that induces 20% of HLA-A2 expression” value amounted to 0.7 µM and the “in vitro binding affinity (relative to HIV pol reference peptide)” value is 0.1 ratio to HIV pol 589-597.

A further experiment has the same target. As to the kind of experiment: T2 cells (HLA-A*0201), peptide at 100 µM, anti-HLA-A2 flow cytometry. The protocol: as §1, §2
Turning to LMIPAGIYA [MS4A1-H3], the “mean relative fluorescence intensity” value is 92.6 % of HIV pol 589-597 at 100 µM.

Take YILGGLLMV [MS4A1-B12]: the “mean relative fluorescence intensity” value was 42 % of HIV pol 589-597 at 100 µM.

In the case of AMNSLSLYI [MS4A1-B4], the “mean relative fluorescence intensity” value was 115 % of HIV pol 589-597 at 100 µM.

In the case of ILIPAGIYL [MS4A1-B3], the “mean relative fluorescence intensity” value is 88.8 % of HIV pol 589-597 at 100 µM.

A further experiment shares this target. As to the kind of experiment: T2 cells (HLA-A*0201), peptide at 0.1 µM, anti-HLA-A2 flow cytometry. The protocol:
as §1, §2
As to LMIPAGIYA [MS4A1-H3], the “mean relative fluorescence intensity” value was 0 % of HIV pol 589-597 at 100 µM.

On to YILGGLLMV [MS4A1-B12], for which the “mean relative fluorescence intensity” value was 1.2 % of HIV pol 589-597 at 100 µM.

In the case of AMNSLSLYI [MS4A1-B4], the “mean relative fluorescence intensity” value was 0.5 % of HIV pol 589-597 at 100 µM.

In the case of ILIPAGIYL [MS4A1-B3], the “mean relative fluorescence intensity” value is 1.9 % of HIV pol 589-597 at 100 µM.

For the next experiment the target is unchanged. Put plainly: T2 cells (HLA-A*0201), anti-HLA-A2 flow cytometry.
Consider FLFGAPASA [TNFRSF13C-B11], for which the binding result is listed as “binds”.

Take RVFEHPELV [CD22-B13]: the binding result is “binds”.

In the case of YMNSLSLAL (Printed as YMNSLSLAL) [MS4A1-B42], the binding result is on record as “binds”.

With ILAFVPLYL [CD37-B12], the binding result is “binds”.

Take VLAFVPLGV [CD37-B15]: the binding result is given as “binds”.

On to LLFGAPAGV [TNFRSF13C-B12], for which the binding result was “binds”.

For the molecule AMNSLSLTV [MS4A1-B43], the binding result is given as “binds”.

As for FLAFVPLDV [CD37-B14], the binding result is “binds”.

As for VLFGAPAYL [TNFRSF13C-B13], the binding result is listed as “binds”.

As for LIFEHPERV [CD22-B12], the binding result is “binds”.

The record behind these values is patent US20220323561A1 (ENTEROME S A, published 2022).
